Laboratory results as given in article PMC9731694, “SRSF5‐Mediated Alternative Splicing of M Gene is Essential for Influenza A Virus Replication: A Host‐Directed Target Against Influenza Virus” (Advanced Science, 2022).

Target: T1, GST-U1A-His (human (amplified from A549 cells), UniProt P09012 1-282)
T1 construct: also called GST tagged U1A-His
Assay: pull-down; GST pulldown: 300 ng purified SRSF5-Flag with 150 ng glutathione-bound GST-tagged protein, 300 µL, 1 h at 4 °C; 50 mM Tris pH 7.5, 200 mM NaCl, 10% glycerol, 0.5% Triton-X-100, RNaseA; blot with anti-Flag or anti-His
Details: both partners purified

T1 sequence (P09012 whole entry): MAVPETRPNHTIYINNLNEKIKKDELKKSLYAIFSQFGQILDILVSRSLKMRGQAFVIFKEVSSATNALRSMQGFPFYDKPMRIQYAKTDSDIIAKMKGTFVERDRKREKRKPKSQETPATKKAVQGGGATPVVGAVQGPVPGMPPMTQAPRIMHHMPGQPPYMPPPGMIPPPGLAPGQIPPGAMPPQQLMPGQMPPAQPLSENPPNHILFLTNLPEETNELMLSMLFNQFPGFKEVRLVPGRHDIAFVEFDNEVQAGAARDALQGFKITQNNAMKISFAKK

B1: purified recombinant SRSF5-Flag (natural protein, human, UniProt Q13243 1-272, looked up)
chain: MSGCRVFIGRLNPAAREKDVERFFKGYGRIRDIDLKRGFGFVEFEDPRDADDAVYELDGKELCSERVTIEHARARSRGGRGRGRYSDRFSSRRPRNDRRNAPPVRTENRLIVENLSSRVSWQDLKDFMRQAGEVTFADAHRPKLNEGVVEFASYGDLKNAIEKLSGKEINGRKIKLIEGSKRHSRSRSRSRSRTRSSSRSRSRSRSRSRKSYSRSRSRSRSRSRSKSRSVSRSPVPEKSQKRGSSSRSKSPASVDRQRSRSRSRSRSVDSGN
notes: also called hSRSF5-Flag; Flag-SRSF5
- binding result: binds
